Test results published in patent US10618965 (dated 2020).

T1: human FcgRIIb (human)
T1 chain: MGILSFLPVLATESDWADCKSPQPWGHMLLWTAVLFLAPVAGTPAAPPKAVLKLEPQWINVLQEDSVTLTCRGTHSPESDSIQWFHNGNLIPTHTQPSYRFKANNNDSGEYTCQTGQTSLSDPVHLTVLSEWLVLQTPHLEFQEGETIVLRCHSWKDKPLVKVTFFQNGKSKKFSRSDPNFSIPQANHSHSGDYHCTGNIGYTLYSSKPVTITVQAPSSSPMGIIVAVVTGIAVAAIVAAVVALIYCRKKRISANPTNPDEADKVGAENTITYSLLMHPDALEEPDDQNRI

T2: human FcgRIIa(R) (human)
T2 chain: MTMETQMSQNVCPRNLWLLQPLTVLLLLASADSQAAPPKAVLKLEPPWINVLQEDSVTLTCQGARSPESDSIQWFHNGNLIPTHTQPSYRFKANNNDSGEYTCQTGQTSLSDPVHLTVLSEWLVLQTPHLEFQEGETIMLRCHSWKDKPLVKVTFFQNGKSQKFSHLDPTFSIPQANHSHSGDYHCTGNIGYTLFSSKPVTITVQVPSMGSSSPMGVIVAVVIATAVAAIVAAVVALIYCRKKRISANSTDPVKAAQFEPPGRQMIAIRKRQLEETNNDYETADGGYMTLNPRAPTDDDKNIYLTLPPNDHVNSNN


Key:
Experiment in all cases: SPR
human FcgRIIIa(V) = human FcgRIIIa(V) (human)
human FcgRIIb = biological target: T1, human FcgRIIb
human FcgRIIa(R) = biological target: T2, human FcgRIIa(R)
human FcgRIa = human FcgRIa (human)
Chain of human FcgRIa (human) (chain, as listed by the source): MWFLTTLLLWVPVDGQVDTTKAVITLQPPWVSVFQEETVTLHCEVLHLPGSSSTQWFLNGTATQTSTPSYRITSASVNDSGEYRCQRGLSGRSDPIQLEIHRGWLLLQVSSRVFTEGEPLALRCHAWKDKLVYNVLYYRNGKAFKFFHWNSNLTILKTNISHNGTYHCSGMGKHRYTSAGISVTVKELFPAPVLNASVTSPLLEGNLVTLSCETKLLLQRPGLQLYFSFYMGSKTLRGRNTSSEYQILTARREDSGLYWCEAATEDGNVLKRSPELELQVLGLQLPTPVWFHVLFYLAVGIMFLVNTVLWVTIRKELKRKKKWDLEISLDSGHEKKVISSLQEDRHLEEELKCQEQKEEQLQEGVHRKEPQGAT

Chain of human FcgRIIIa(V) (human) (chain, as listed by the source): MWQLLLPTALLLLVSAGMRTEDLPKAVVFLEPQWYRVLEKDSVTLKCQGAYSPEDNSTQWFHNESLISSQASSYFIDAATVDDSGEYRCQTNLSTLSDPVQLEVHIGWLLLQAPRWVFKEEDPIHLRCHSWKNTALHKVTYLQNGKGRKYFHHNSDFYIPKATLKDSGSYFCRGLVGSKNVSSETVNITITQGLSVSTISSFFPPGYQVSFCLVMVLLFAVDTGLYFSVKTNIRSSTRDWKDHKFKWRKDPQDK

Binder | Kd (human FcgRIIIa(V)) [µM] | Kd (human FcgRIIb) [µM] | Kd (human FcgRIIa(R)) [µM] | Kd (human FcgRIa) [µM]
IL6R-PD082 (antibody) chain 1: QVQLQESGPGLVKPSETLSLTCAVSGHSISHDHAWSWVRQPPGEGLEWIGFISYSGITNYNPSLQGRVTISRDNSKNTLYLQMNSLRAEDTAVYYCARSLARTTAMDYWGEGTLVTVSSASTKGPSVFPLAPSSKSTSGGTAALGCLVKDYFPEPVTVSWNSGALTSGVHTFPAVLQSSGLYSLSSVVTVPSSSLGTQTYICNVNHKPSNTKVDKKVEPKSCDKTHTCPPCPAPELLGFDSVFLFPPKPKDTLYISRTPEVTCVVVDVSHEDPEVKFNWYVDGVEVHNAKTKPREEQYNSTYRVVSVLTVLHQDWLNGKEYKCKVSNKALPAPIEKTISKAKGQPREPQVYTLPPSRDELTKNQVSLTCLVKGFYPSDIAVEWESNGQPENNYKTTPPVLDSDGSFFLYSKLTVDKSRWQQGNVFSCSVMHEALHYHYTQKSLSLSP chain 2: DIQMTQSPSSLSASVGDRVTITCRASQDISSYLNWYQQKPGKAPKLLIYYTSRLHSGVPSRFSGSGSGTDFTFTISSLQPEDIATYYCQQGNTLPYTFGQGTKVEIK | 43 | 3.4 | 14 | 0.052
IL6R-PD094 (antibody) chain 1: QVQLQESGPGLVKPSETLSLTCAVSGHSISHDHAWSWVRQPPGEGLEWIGFISYSGITNYNPSLQGRVTISRDNSKNTLYLQMNSLRAEDTAVYYCARSLARTTAMDYWGEGTLVTVSSASTKGPSVFPLAPSSKSTSGGTAALGCLVKDYFPEPVTVSWNSGALTSGVHTFPAVLQSSGLYSLSSVVTVPSSSLGTQTYICNVNHKPSNTKVDKKVEPKSCDKTHTCPPCPAPELLGWDSVFLFPPKPKDTLYISRTPEVTCVVVDVSHEDPEVKFNWYVDGVEVHNAKTKPREEQYNSTYRVVSVLTVLHQDWLNGKEYKCKVSNKALPAPIEKTISKAKGQPREPQVYTLPPSRDELTKNQVSLTCLVKGFYPSDIAVEWESNGQPENNYKTTPPVLDSDGSFFLYSKLTVDKSRWQQGNVFSCSVMHEALHYHYTQKSLSLSP chain 2: DIQMTQSPSSLSASVGDRVTITCRASQDISSYLNWYQQKPGKAPKLLIYYTSRLHSGVPSRFSGSGSGTDFTFTISSLQPEDIATYYCQQGNTLPYTFGQGTKVEIK | – | 2.3 | 7.2 | 0.036
IL6R-PD079 (antibody) chain 1: QVQLQESGPGLVKPSETLSLTCAVSGHSISHDHAWSWVRQPPGEGLEWIGFISYSGITNYNPSLQGRVTISRDNSKNTLYLQMNSLRAEDTAVYYCARSLARTTAMDYWGEGTLVTVSSASTKGPSVFPLAPSSKSTSGGTAALGCLVKDYFPEPVTVSWNSGALTSGVHTFPAVLQSSGLYSLSSVVTVPSSSLGTQTYICNVNHKPSNTKVDKKVEPKSCDKTHTCPPCPAPELLGADSVFLFPPKPKDTLYISRTPEVTCVVVDVSHEDPEVKFNWYVDGVEVHNAKTKPREEQYNSTYRVVSVLTVLHQDWLNGKEYKCKVSNKALPAPIEKTISKAKGQPREPQVYTLPPSRDELTKNQVSLTCLVKGFYPSDIAVEWESNGQPENNYKTTPPVLDSDGSFFLYSKLTVDKSRWQQGNVFSCSVMHEALHYHYTQKSLSLSP chain 2: DIQMTQSPSSLSASVGDRVTITCRASQDISSYLNWYQQKPGKAPKLLIYYTSRLHSGVPSRFSGSGSGTDFTFTISSLQPEDIATYYCQQGNTLPYTFGQGTKVEIK | 37 | 3 | 32 | 0.14
IL6R-PD086 (antibody) chain 1: QVQLQESGPGLVKPSETLSLTCAVSGHSISHDHAWSWVRQPPGEGLEWIGFISYSGITNYNPSLQGRVTISRDNSKNTLYLQMNSLRAEDTAVYYCARSLARTTAMDYWGEGTLVTVSSASTKGPSVFPLAPSSKSTSGGTAALGCLVKDYFPEPVTVSWNSGALTSGVHTFPAVLQSSGLYSLSSVVTVPSSSLGTQTYICNVNHKPSNTKVDKKVEPKSCDKTHTCPPCPAPELLGLDSVFLFPPKPKDTLYISRTPEVTCVVVDVSHEDPEVKFNWYVDGVEVHNAKTKPREEQYNSTYRVVSVLTVLHQDWLNGKEYKCKVSNKALPAPIEKTISKAKGQPREPQVYTLPPSRDELTKNQVSLTCLVKGFYPSDIAVEWESNGQPENNYKTTPPVLDSDGSFFLYSKLTVDKSRWQQGNVFSCSVMHEALHYHYTQKSLSLSP chain 2: DIQMTQSPSSLSASVGDRVTITCRASQDISSYLNWYQQKPGKAPKLLIYYTSRLHSGVPSRFSGSGSGTDFTFTISSLQPEDIATYYCQQGNTLPYTFGQGTKVEIK | 41 | 2.6 | 18 | 0.12
IL6R-PD095 (antibody) chain 1: QVQLQESGPGLVKPSETLSLTCAVSGHSISHDHAWSWVRQPPGEGLEWIGFISYSGITNYNPSLQGRVTISRDNSKNTLYLQMNSLRAEDTAVYYCARSLARTTAMDYWGEGTLVTVSSASTKGPSVFPLAPSSKSTSGGTAALGCLVKDYFPEPVTVSWNSGALTSGVHTFPAVLQSSGLYSLSSVVTVPSSSLGTQTYICNVNHKPSNTKVDKKVEPKSCDKTHTCPPCPAPELLGYDSVFLFPPKPKDTLYISRTPEVTCVVVDVSHEDPEVKFNWYVDGVEVHNAKTKPREEQYNSTYRVVSVLTVLHQDWLNGKEYKCKVSNKALPAPIEKTISKAKGQPREPQVYTLPPSRDELTKNQVSLTCLVKGFYPSDIAVEWESNGQPENNYKTTPPVLDSDGSFFLYSKLTVDKSRWQQGNVFSCSVMHEALHYHYTQKSLSLSP chain 2: DIQMTQSPSSLSASVGDRVTITCRASQDISSYLNWYQQKPGKAPKLLIYYTSRLHSGVPSRFSGSGSGTDFTFTISSLQPEDIATYYCQQGNTLPYTFGQGTKVEIK | – | 2.3 | 7.9 | 0.093
IL6R-PD042 (antibody) chain 1: QVQLQESGPGLVKPSETLSLTCAVSGHSISHDHAWSWVRQPPGEGLEWIGFISYSGITNYNPSLQGRVTISRDNSKNTLYLQMNSLRAEDTAVYYCARSLARTTAMDYWGEGTLVTVSSASTKGPSVFPLAPSSKSTSGGTAALGCLVKDYFPEPVTVSWNSGALTSGVHTFPAVLQSSGLYSLSSVVTVPSSSLGTQTYICNVNHKPSNTKVDKKVEPKSCDKTHTCPPCPAPEWLGGDSVFLFPPKPKDTLYISRTPEVTCVVVDVSHEDPEVKFNWYVDGVEVHNAKTKPREEQYNSTYRVVSVLTVLHQDWLNGKEYKCKVSNKALPAPIEKTISKAKGQPREPQVYTLPPSRDELTKNQVSLTCLVKGFYPSDIAVEWESNGQPENNYKTTPPVLDSDGSFFLYSKLTVDKSRWQQGNVFSCSVMHEALHYHYTQKSLSLSP chain 2: DIQMTQSPSSLSASVGDRVTITCRASQDISSYLNWYQQKPGKAPKLLIYYTSRLHSGVPSRFSGSGSGTDFTFTISSLQPEDIATYYCQQGNTLPYTFGQGTKVEIK | – | 2 | 16 | 0.063

Further binders by falling Kd (human FcgRIIb), results first:

Kd (human FcgRIIIa(V)) [µM] | Kd (human FcgRIIb) [µM] | Kd (human FcgRIIa(R)) [µM] | Kd (human FcgRIa) [µM] | Binder
– | 2 | 21 | 0.14 | IL6R-PD080 (antibody) chain 1: QVQLQESGPGLVKPSETLSLTCAVSGHSISHDHAWSWVRQPPGEGLEWIGFISYSGITNYNPSLQGRVTISRDNSKNTLYLQMNSLRAEDTAVYYCARSLARTTAMDYWGEGTLVTVSSASTKGPSVFPLAPSSKSTSGGTAALGCLVKDYFPEPVTVSWNSGALTSGVHTFPAVLQSSGLYSLSSVVTVPSSSLGTQTYICNVNHKPSNTKVDKKVEPKSCDKTHTCPPCPAPELLGADSVFLFPPKPKDTLYISRTPEVTCVVVDVSHEDPEVKFNWYVDGVEVHNAKTKPREEQYNSTYRVVSVLTVLHQDWLNGKEYKCKVSNKALPAPIEKTISKAKGQPREPQVYTLPPSRDELTKNQVSLTCLVKGFYPSDIAVEWESNGQPENNYKTTPPVLDSDGSFFLYSKLTVDKSRWQQGNVFSCSVMHEALHYHYTQKSLSLSP chain 2: DIQMTQSPSSLSASVGDRVTITCRASQDISSYLNWYQQKPGKAPKLLIYYTSRLHSGVPSRFSGSGSGTDFTFTISSLQPEDIATYYCQQGNTLPYTFGQGTKVEIK
– | 1.6 | 26 | 0.075 | IL6R-PD043 (antibody) chain 1: QVQLQESGPGLVKPSETLSLTCAVSGHSISHDHAWSWVRQPPGEGLEWIGFISYSGITNYNPSLQGRVTISRDNSKNTLYLQMNSLRAEDTAVYYCARSLARTTAMDYWGEGTLVTVSSASTKGPSVFPLAPSSKSTSGGTAALGCLVKDYFPEPVTVSWNSGALTSGVHTFPAVLQSSGLYSLSSVVTVPSSSLGTQTYICNVNHKPSNTKVDKKVEPKSCDKTHTCPPCPAPEYLGGDSVFLFPPKPKDTLYISRTPEVTCVVVDVSHEDPEVKFNWYVDGVEVHNAKTKPREEQYNSTYRVVSVLTVLHQDWLNGKEYKCKVSNKALPAPIEKTISKAKGQPREPQVYTLPPSRDELTKNQVSLTCLVKGFYPSDIAVEWESNGQPENNYKTTPPVLDSDGSFFLYSKLTVDKSRWQQGNVFSCSVMHEALHYHYTQKSLSLSP chain 2: DIQMTQSPSSLSASVGDRVTITCRASQDISSYLNWYQQKPGKAPKLLIYYTSRLHSGVPSRFSGSGSGTDFTFTISSLQPEDIATYYCQQGNTLPYTFGQGTKVEIK
– | 1.4 | 3.5 | 0.0049 | IL6R-PD097 (antibody) chain 1: QVQLQESGPGLVKPSETLSLTCAVSGHSISHDHAWSWVRQPPGEGLEWIGFISYSGITNYNPSLQGRVTISRDNSKNTLYLQMNSLRAEDTAVYYCARSLARTTAMDYWGEGTLVTVSSASTKGPSVFPLAPSSKSTSGGTAALGCLVKDYFPEPVTVSWNSGALTSGVHTFPAVLQSSGLYSLSSVVTVPSSSLGTQTYICNVNHKPSNTKVDKKVEPKSCDKTHTCPPCPAPELLGGDDVFLFPPKPKDTLYISRTPEVTCVVVDVSHEDPEVKFNWYVDGVEVHNAKTKPREEQYNSTYRVVSVLTVLHQDWLNGKEYKCKVSNKALPAPIEKTISKAKGQPREPQVYTLPPSRDELTKNQVSLTCLVKGFYPSDIAVEWESNGQPENNYKTTPPVLDSDGSFFLYSKLTVDKSRWQQGNVFSCSVMHEALHYHYTQKSLSLSP chain 2: DIQMTQSPSSLSASVGDRVTITCRASQDISSYLNWYQQKPGKAPKLLIYYTSRLHSGVPSRFSGSGSGTDFTFTISSLQPEDIATYYCQQGNTLPYTFGQGTKVEIK
